Several values for one entry are separate records, joined by “and”; a condition that tells them apart may be missing. Equal entries are not always repeated. Bridge positions count the residues as written; N and C are the ends. Square brackets hold non-standard residues; d marks the D form. Ends that are not written are not given here. I, II: the chains in the order shown. Phe(4-NH2) = Nc1ccc(C[C@H](N)C(=O)O)cc1

The labels stand for the following.
B1: IGF-1 A:B(E10Y16L17)-E31E32 B-COOH (ligand)
chain 1: GIVDECCFRSCDLRRLEMYCA
chain 2: GPETLCGAELVDALYLVCGDRGFYFNKPTEE-OH
modifications: not fully specified (C-terminus); ends and bridges not checked
B2: IGF-1 A (H8 A9 N21):B(H5D10Y16L17 A22) DPI A-COOH (ligand)
chain 1: GIVDECCHASCDLRRLEMYCN-OH
chain 2: GPEHLCGADLVDALYLVCGDAGFY
modifications: not fully specified (C-terminus); ends and bridges not checked
B3: IGF-1 A:B(D10Y16L17) DPI A-COOH (ligand)
chain 1: GIVDECCFRSCDLRRLEMYCA-OH
chain 2: GPETLCGADLVDALYLVCGDRGFY-NH2
modifications: ends and bridges not checked
B4: IGF-1 A (H8 A9 N21):B(H5D10Y16L17) DPI A-COOH (ligand)
chain 1: GIVDECCHASCDLRRLEMYCN-OH
chain 2: GPEHLCGADLVDALYLVCGDRGFY
modifications: not fully specified (C-terminus); ends and bridges not checked
B5: IGF-1 A:B(E10Y16L17) (ligand)
chain 1: GIVDECCFRSCDLRRLEMYCA-NH2
chain 2: GPETLCGAELVDALYLVCGDRGFYFNKPT-NH2
modifications: cysteine pairing not given here
B6: IGF-1 A:B (H5D10Y16L17) DPI (ligand)
chain 1: GIVDECCFRSCDLRRLEMYCA-NH2
chain 2: GPEHLCGADLVDALYLVCGDRGFY-NH2
modifications: cysteine pairing not given here
B7: IGF1(Y^B16L^B17)(AlaPro)^A-1,0 (ligand)
chain 1: APGIVDECCFRSCDLRRLEMYCA
chain 2: GPETLCGAELVDALYLVCGDRGFYFNKPT
B8: IGF-1 A:B (E10Y16L17) DPI (ligand)
chain 1: GIVDECCFRSCDLRRLEMYCA-NH2
chain 2: GPETLCGAELVDALYLVCGDRGFY-NH2
modifications: cysteine pairing not given here
B9: IGF-1 A:IGF-1 B(1-8)-In (9-17)-IGF-1 B(18-30) (ligand)
chain 1: GIVDECCFRSCDLRRLEMYCA-NH2
chain 2: GPETLCGSHLVEALYLVCGDRGFYFNKPT-NH2
modifications: disulfide I:6-I:11, I:20-II:18, I:7-II:6 (inferred); not fully specified
notes: chimeric B chain
B10: IGF-1 A:In B(1-5)-IGF-1 B(YL) (6-30) (ligand)
chain 1: GIVDECCFRSCDLRRLEMYCA
chain 2: FVNQHLCGAELVDALYLVCGDRGFYFNKPT
modifications: ends and bridges not checked; also: C-terminal amide, chain not given here
notes: chimeric B chain
B11: MIU-57: B1-PEG20K MIU-35 (ligand)
chain: {PEG 20 kDa}-GPEHLCGAHLVDALYLVCGDRGFYGYGSSSRRAPQTGIVDECCHRSCDLRRLENYCN
modifications: ends and bridges not checked
B12: IGF-1 A (H8 A9 N21):B(H5D10Y16L17A22) (S═O) DPI A-COOH (ligand)
chain 1: GIVDECCHASCDLRRLEMYCN-OH
chain 2: GPEHLCGADLVDALYLVCGDAGFY
modifications: not fully specified (C-terminus); ends and bridges not checked; also: (S═O) oxidation, residue not given here
B13: IGF-1 A:B(H5D10Y16L17) (S═O) DPI (ligand)
chain 1: GIVDECCFRSCDLRRLEMYCA-NH2
chain 2: GPEHLCGADLVDALYLVCGDRGFY-NH2
modifications: ends and bridges not checked; also: (S═O) oxidation, residue not given here
B14: IGF-1 A:B (ligand, human)
chain 1: GIVDECCFRSCDLRRLEMYCA
chain 2: GPETLCGAELVDALQFVCGDRGFYFNKPT
modifications: not fully specified (C-terminus); ends and bridges not checked; also: C-terminal amide, chain not given here
notes: domain: B chain; two-chain form of IGF-1
B15: IGF-2 AB(YL) (ligand)
chain 1: not shown
chain 2: AYRPSETLCGGELVDTLYLVCGDRGFYFSRPA
modifications: C-terminal amide
B16: IGF1 (Y^B16L^B17) (p-NH2-F)^A19 amide (ligand)
chain 1: GIVDECCFRSCDLRRLEM[Phe(4-NH2)]CA
chain 2: GPETLCGAELVDALYLVCGDRGFYFNKPT
modifications: not fully specified; ends and bridges not checked
notes: also called IGF1 (Y^B16L^B17) A(p-NH2-F)^19
B17: GE5W-B^1(H5,10Y16L17)25-C^1-A^1(A1H8N18,21) (ligand)
chain: GEEEEEWGPEHLCGAHLVDALYLVCGDRGFYGYGSSSRRAPQTAIVDECCHRSCDLRRLENYCN
B18: B^1(H5,10Y16L17)25-C^1-A^1(T8N18,21) (ligand)
chain: GPEHLCGAHLVDALYLVCGDRGFYGYGSSSRRAPQTGIVDECCTRSCDLRRLENYCN

For the first assay, the target named is T1, human insulin receptor (human, UniProt P06213 28-1382). The assay is described as follows: cell-based or functional assay.
Consider B1, for which the “EC50, receptor phosphorylation” value was 7 nM and 8.52 nM.

Regarding B2, the “EC50, receptor phosphorylation” value is 0.35 nM and 0.44 nM.

As to B3, the “% Insulin” value came out at 1580%.

For the molecule B4, the “EC50, receptor phosphorylation” value is 0.15 nM and 0.25 nM.

As to B5, the “% Insulin” value worked out at 49.2% and the “EC50, receptor phosphorylation” value was 2.57 nM.

A further assay concerns the target T2, human IGF-1 receptor (human, UniProt P08069 31-1367). The experiment in a line: cell-based or functional assay.
In the case of B6, the “% IGF” value was 7.1% and the “EC50, receptor phosphorylation” value came to 12.2 nM.

In the case of B2, the “% IGF” value was 7.7% and the “EC50, receptor phosphorylation” value is 11.3 nM.

Turning to B3, the “% IGF” value stood at 112% and the “EC50, receptor phosphorylation” value worked out at 0.78 nM.

Turning to B4, the “% IGF” value was 181% and the “EC50, receptor phosphorylation” value was determined as 0.43 nM.

The target of a further assay is T1, human insulin receptor. The assay is described as follows: competition SPA, [125I]insulin.
What is called IC50 is the concentration at which inhibition is half-maximal. Low values mean higher potency, high ones lower potency. With B7, the IC50 was 1.93 nM.

A further assay deals with T2, human IGF-1 receptor. The experiment in a line: competition SPA, [125I]IGF-1. How it is done: (§1) Non-specifically bound (NSB) radioactivity was measured in the wells with a four-fold concentration excess of “cold” native ligand than the highest concentration in test samples. Total bound radioactivity was detected in the wells with no competitor. Percent specific binding was calculated as following: % Specific Binding=(Bound-NSB/Total bound-NSB)×100. IC50 values were determined by using Origin software (OriginLab, Northampton, Mass.).
As for B1, the “% IGF-1 (in test)” value came out at 3% and the “% native IGF-1 activity (0.55 nM)” value amounted to 3.1%.

With B6, the “% IGF-1 (in test)” value is 11.2% and the “% native IGF-1 activity (0.55 nM)” value turned out to be 11.8%.

B2: the “% IGF-1 (in test)” value came out at 2.3% and the “% native IGF-1 activity (0.55 nM)” value was 2.4%.

B3: the “% IGF-1 (in test)” value turned out to be 7.7% and the “% native IGF-1 activity (0.55 nM)” value is 8.1%.

As for B4, the “% IGF-1 (in test)” value came to 12.9% and the “% native IGF-1 activity (0.55 nM)” value amounted to 13.6%.

For the molecule B8, the “% IGF-1 (in test)” value stood at 3.3% and the “% native IGF-1 activity (0.55 nM)” value came to 2.4%.

For the molecule B9, the “% IGF-1 (in test)” value amounted to 0.3% and the “% native IGF-1 activity (0.55 nM)” value worked out at 0.4%.

In the case of B10, the “% IGF-1 (in test)” value turned out to be 3.6% and the “% native IGF-1 activity (0.55 nM)” value was determined as 2%.

Another assay concerns the target T2, human IGF-1 receptor. The experiment in a line: cell-based or functional assay. The source holds these as a separate data set.
Consider B11, for which the “Phosphorylation (EC50), % IGF-1 R” value turned out to be 1.2%.

The target in the next assay is T1, human insulin receptor. The experiment in a line: competition SPA, [125I]insulin. The source holds these as a separate data set. How it is done: as §1
As for B6, the “% insulin (in test)” value was 479% and the IC50 amounted to 0.16 nM.

Take B2: the “% insulin (in test)” value is 1170% and the 50% inhibitory concentration (IC50) is 0.12 nM.

B12: the “% insulin (in test)” value stood at 401%.

Consider B13, for which the “% insulin (in test)” value was 316% and the IC50 is 0.25 nM.

On to B9, for which the “% insulin (in test)” value was 19.1%, the “% native insulin activity (0.6 nM)” value was 37.7% and the IC50 is 1.59 nM.

Take B14: the “% insulin (in test)” value amounted to 5.8%, the “% native insulin activity (0.6 nM)” value worked out at 5.8% and the IC50 was determined as 10.4 nM.

Consider B15, for which the IC50 stood at 6.81 nM.

For the next assay, the target named is T1, human insulin receptor. The experiment in a line: competition SPA, [125I]insulin. This is another data set of the same source.
B16 came in with an IC50 of 1.08 nM. In other words, the single-digit nanomolar range.

A further assay has as its target T2, human IGF-1 receptor. The experiment in a line: cell-based or functional assay. This is another data set of the same source.
Turning to B17, the “% (potency at the receptor, assay not named)” value was 0.5%.

For B18, the “% (potency at the receptor, assay not named)” value came to 3.7%.

In the case of B11, the “% (potency at the receptor, assay not named)” value was found to be 1.2%.

Another assay deals with T2, human IGF-1 receptor. The experiment in a line: cell-based or functional assay. This is another data set of the same source.
Turning to B11, the “% Insulin Activity (in vitro, assay not named)” value came to 1.2%.

The record behind these values is patent publication US20150274802A1 (INDIANA UNIVERSITY RESEARCH AND TECHNOLOGY, published 2015).
